Laboratory results: patent US20200165323A1 (PANASONIC INTELLECTUAL PROPERTY MANAGEMENT, published 2020)

Molecular target: recombinant nucleoprotein (NP) protein derived from influenza virus H1N1 to which a Flag tag was fus (influenza virus H1N1)
Sequence (P03466 whole entry): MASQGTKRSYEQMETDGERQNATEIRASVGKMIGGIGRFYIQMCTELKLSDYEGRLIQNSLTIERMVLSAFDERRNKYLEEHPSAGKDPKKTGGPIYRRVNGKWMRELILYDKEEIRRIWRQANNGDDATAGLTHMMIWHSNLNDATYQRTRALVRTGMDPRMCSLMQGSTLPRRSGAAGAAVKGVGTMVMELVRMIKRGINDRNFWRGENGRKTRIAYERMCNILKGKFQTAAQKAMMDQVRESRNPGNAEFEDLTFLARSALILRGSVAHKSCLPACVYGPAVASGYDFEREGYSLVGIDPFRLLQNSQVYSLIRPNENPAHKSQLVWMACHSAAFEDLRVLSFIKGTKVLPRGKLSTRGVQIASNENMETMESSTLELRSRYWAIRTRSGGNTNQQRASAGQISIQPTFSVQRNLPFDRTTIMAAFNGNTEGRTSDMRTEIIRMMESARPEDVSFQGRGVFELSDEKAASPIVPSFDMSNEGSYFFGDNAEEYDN

B1: VHH antibody consisting of the amino acid sequence represented by SEQ ID NO: 8 (VHH)
VHH: QLQLVESGGGLVQAGGSLRLSCAASGSAFSLYAMGWHRQAPGKQRELVAYITNGDITNYADSVQGRVIISRDNAKNTVYLHMNSLKPEDTAVYYCYAVGGRTFWGQGTQVTVSS
Kd: 1.09 nM
